Results: the RNAGym collection of RNA variant scans (doi:10.1021/acssynbio.7b00057)

B1: Pistol ribozyme (parent)
chain: GGGUCGUUGUUCCAUAAUCGCGUGGAUAUGGCACGCAAGUUUCUACCGGGCACCGUAAAUGUCCGACUGGAGCCGUUCGGGCGGCUAUAAACAGACCUCAGGCCCGAAGCGUGGCGGCACCUGCCGCCGGUGGUAAAAAAGAUCGGAAGAGCACACGUCU

Variants of: B1
Experiment: aptazyme ON/OFF ratio, guanine; higher = stronger switching; co-transcriptional cleavage with and without guanine

Variant	aptazyme ON/OFF ratio
U7G U8G G9U U10C C12U	1.28
U7G U8C G9U U10C U11C C13A	1.34
U7G U8G G9A U10C U11A C12G C13U	1.17
U8C G9U U10G C12U C13U	1.01
U7C U8A G9U U10C U11C C13U	1.01
U7A U8A G9C U11A C13G	1.06
U7A U8A G9U U11A C13G	1.06
U7A U8G U10A U11C C12A C13A	1.26
U8C G9U U10A U11G C12A C13G	1.13
U8G G9U U10A C13U	1.09
U7G U8A G9U U10A U11G	1.09
U7C U8G U10C U11G C12G C13U	1.11
U7C G9U U10C U11C	1.05
U7A U8G G9C U11G C12A C13A	1.29
U7C U8A G9C U10C U11G C12G C13U	1.07
U7C U8A G9A U11C C12U C13U	1.2
U8G G9U U10C U11C C13U	1.02
U7C U8A G9C U10G U11G C12G C13G	1.13
U7C U10C U11C C12A C13G	1.32
U7G U10G C12U C13G	1.24
U7G U8A G9A U10C C12G	1.15

Variant	aptazyme ON/OFF ratio
U8G G9U U11G C12U C13G	1.1
U7C U8G U10G U11C C12G	1.55
U8G G9A U10G U11G C12G C13G	1.44
G9A U11A C12A C13U	1.36
U7G U8C U10C C12U	3.24
U8C G9U U11C C12U	1.09
U7G U8A G9C U10C U11A C13U	1.1
U7A U8A G9C U11G C12G C13G	1.32
U8C G9A U10A C12U C13G	1.24
U7G U8A G9U U10A U11G C12A C13G	1.06
U7A U8C G9C U11A C12A	1.08
U7G U8G U10G U11A C12A C13G	1.31
U7C G9A U10A C12U C13A	1.16
U8G G9A U10C C12A C13U	1.17
U7C U8G U10G U11A C12A C13A	1.11
U7G G9C C12A C13U	1.34
U7A U8C G9U U10A U11G C12A	1.07
U8A G9C U11C C13A	1.06
U7G U10A U11A C12G C13U	1.16
U7G U8C G9C U10G U11A	1.11
U7G U8A G9U U10C U11C C13G	1.02

Variant	aptazyme ON/OFF ratio
U7C U8A U10A U11C C12G C13U	1.13
U7C U8C G9C U10C	3.53
U8G U11G C12U C13A	1.22
U7G G9U U10G C12U C13G	1.34
U7C G9A C13A	1.05
U7G U8C G9U U10G U11G C12G C13A	1.11
U7A U8C G9A U11C C12G C13G	1.07
U7G U8A G9U U10A U11G C12G C13U	1.08
U7A U8A G9C U10G U11C C12A C13G	1.08
U10C U11G C12U C13G	1.33
U7G U8C G9C U10A C12A C13A	1.08
U7A U8A G9A U10C U11G C12G C13U	1.08
U7C U8C U10G C12U C13U	1.13
U7A U8C G9C U10A U11C C12G C13G	1.27
U7C U8A G9C U10G U11C C13A	1.39
U8C U10A C12U C13U	1.32
U7A U8A U10G U11A C12G C13G	1.16
U7A U8G G9C U10G C12A C13A	1.31
U7C G9A U10G C13A	1.19
U7C G9U U10G U11C C12G C13U	1.12
U7C U8A C12U C13G	1.28

Variant	aptazyme ON/OFF ratio
U7G G9U U10G U11C C12G C13A	1.16
G9C U10C U11A C13U	1.07
G9C U10C U11A C13A	1.05
G9C U10G U11A C12G C13U	1.07
U8C G9C U10C U11C C12A C13G	1.04
G9A U10G U11C	1.1
U7G U8G G9C U11C C13G	1.4
U7C G9U U11A C12G C13G	1.24
U7C U10G C12A C13G	1.14
U7C U10G C12A C13A	1.15
U7C U8A U11G C12A C13A	1.11
U7C U8A U11G C12A C13G	1.14
U7A U8A G9C U10A U11G C12A C13A	1.07
U7A U8A G9C U11G C12U C13A	1.37
U7G U8A G9U U10G U11A C13A	1.06
U7A U10C U11G C12G C13A	1.24
U7C U8G G9U U10G U11A C12U C13U	1.26
U8G G9A U10A C13A	1.25
U7A U8G G9A U10A C12A	1.3
U8A U10G U11G C13U	1.3
U8G G9A U10G U11A C12G C13U	1.24
